From patent US20150218261A1 (AbbVie / Abbott, published 2015)

T1: platelet factor 4 (PF-4) in Cynomolgus monkey plasma (Cynomolgus monkey (Macaca fascicularis), UniProt A0A7N9D5L6 32-101)
T1 construct: Endogenous protein of the plasma; detected with rabbit polyclonal anti-HPF4 (Abcam ab9561); also called CXCL4
T1 sequence: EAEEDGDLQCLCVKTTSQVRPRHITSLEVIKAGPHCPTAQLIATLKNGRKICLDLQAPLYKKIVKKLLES

T2: Aβ(20-42) globulomer (human)
T2 construct: Range counted on the Aβ peptide; also called amyloid-beta (20-42) globulomer
T2 peptide: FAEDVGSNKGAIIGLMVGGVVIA


Columns and labels:
[1] = molecular target: T3, human platelet factor 4 (PF-4) in HPF4-spiked human plasma (human); assay: sandwich ELISA (R2), HPF4-spiked human plasma; AUC of reference anti-HPF4 antibody (ab49735) against AUC of this antibody
T3 construct: Human EDTA plasma pool (4 donors) spiked with 10 ng/ml human PF4 (Molecular Innovation cat. no. HPF4); also called human PF4; CXCL4

[2] = molecular target: T3, human platelet factor 4 (PF-4) in …; assay: aligned sandwich ELISA (R4), HPF4-spiked human plasma; AUC of reference anti-HPF4 antibody (ab49735) against AUC of this antibody
[3] = molecular target: T1, platelet factor 4 (PF-4) in Cynomolgus …; assay: sandwich ELISA (E1), cynomolgus plasma; AUC of reference anti-HPF4 antibody (ab49735) against AUC of this antibody
[4] = molecular target: T3, human platelet factor 4 (PF-4) in …; assay: sandwich ELISA (E2), HPF4-spiked human plasma; AUC of reference anti-HPF4 antibody (ab49735) against AUC of this antibody
[5] = molecular target: T1, platelet factor 4 (PF-4) in Cynomolgus …; assay: sandwich-ELISA: antibody coated on the plate, dilution series of cynomolgus plasma, bound PF-4 detected (OD450nm)
[6] = molecular target: T1, platelet factor 4 (PF-4) in Cynomolgus …; assay: aligned sandwich ELISA (E3), cynomolgus plasma; AUC of reference anti-HPF4 antibody (ab49735) against AUC of this antibody
Procedure: (§1) Then 10 μl 10 mg/ml trypsin inhibitor in H₂O were added. After incubation for 10 min at room temperature the sample was filtrated through a 0.22 μm filter (Millipore cat. no. SLGS0250S).
(§2) Procedure used: [0437] 1. 100 μl of the respective aligning antibody solution (anti-human IgG for experiment E3; anti-murine IgG for reference experiment R3) per well were applied and incubated overnight at 4° C. [0438] 2. The antibody solution was discarded and the wells were washed three times with 250 μl PB ST-buffer. [0439] 3. 265 μl blocking solution per well were added and incubated 2 h at room temperature. [0440] 4. The blocking solution was discarded and the wells were washed three times with 250 μl PBST buffer. [0441] 5. After preparation of the dilution series of each binding antibody, 100 μl per well of these antibody dilutions were applied to the plate. The plate was incubated 2 h at room temperature. [0442] 6. […] Plate colour was monitored during development (5-15 min at ambient temperature) and the reaction was terminated by adding 50 μl/well of stop solution when an appropriate colour had developed. […] The absorbance was read at 450 nm.
(§3) Data analysis was performed as described for sandwich-ELISA with cynomolgus plasma in Example 3.1, except that not plasma dilution factors but the amounts of antibody (expressed in ng/ml) were used as X-values and thus concentration effect curves were calculated.

[7] = molecular target: T3, human platelet factor 4 (PF-4) in …; assay: aligned sandwich ELISA (E4), HPF4-spiked human plasma; AUC of reference anti-HPF4 antibody (ab49735) against AUC of this antibody
[8] = molecular target: T1, platelet factor 4 (PF-4) in Cynomolgus …; assay: aligned sandwich ELISA (E3), cynomolgus plasma; AUC was 0, ratio could not be calculated
Procedure: as §1, §2, §3

[9] = molecular target: T2, Aβ(20-42) globulomer; assay: SPR (BIAcore); antibody captured on goat anti-human IgG Fc, soluble globulomer injected; lot #1759119, average
Procedure: (§4) Interaction of the purified humanized antibodies 4D10hum#1 and 4D10hum#2 to Aβ(20-42) globulomer was evaluated by surface plasmon resonance (SPR) analysis using a BIAcore device. Goat anti-human IgG Fc (10,000 RU) was directly immobilized on a CMS sensor chip by an amine coupling procedure according to the manufacturer's instructions (BIAcore). The respective 4D10hum antibody was captured on the goat anti-human IgG Fc coated surface of the chip by injecting 5.0 μl of a 1 μg/ml 4D10hum antibody solution at a flow rate of 10-15 μl/min. Interaction of soluble Aβ(20-42) globulomer with the 4D10hum antibody on the sensor chip was examined by injecting globulomer solutions (concentration range: 20-0.3125 nM) at a flow rate of 50 μl/min. The association rate was monitored for 5.0 min and the dissociation rate was monitored for 10 min. From the resulting sensorgrams the association rate constant (kₒₙ), dissociation rate constant (koff) and equilibrium dissociation constant (KD) were determined using to the manufacturer's software and instructions. The kinetic and equilibrium constants determined for three different preparations of 4D10hum#1 and two different preparations of 4D10hum#2 are summarized in table 7. […] The heavy chains of antibodies #4 and #5 are as in 4D10hum#1 or #2, and the light chains are chimeras of m4D10 VL (SEQ ID NO:24) and the human Ig kappa constant region (SEQ ID NO:27). The light chains of antibody #3 are as in 4D10hum#1 and #2, and the heavy chains are chimeras of m4D10 VH (SEQ ID NO23) and the human Ig gamma-1 constant region (SEQ ID NO:25).

[10] = molecular target: T2, Aβ(20-42) globulomer; assay: SPR (BIAcore); antibody captured on goat anti-human IgG Fc, soluble globulomer injected; lot #1773659, average
Procedure: as §4

[11] = molecular target: T2, Aβ(20-42) globulomer; assay: SPR (BIAcore); antibody captured on goat anti-human IgG Fc, soluble globulomer injected; lot #1759119, experiment 1
Procedure: as §4

[12] = molecular target: T2, Aβ(20-42) globulomer; assay: SPR (BIAcore); antibody captured on goat anti-human IgG Fc, soluble globulomer injected; lot #1759119, experiment 2
Procedure: as §4

[13] = molecular target: T2, Aβ(20-42) globulomer; assay: SPR (BIAcore); antibody captured on goat anti-human IgG Fc, soluble globulomer injected; lot #1773659, experiment 1
Procedure: as §4

[14] = molecular target: T2, Aβ(20-42) globulomer; assay: SPR (BIAcore); antibody captured on goat anti-human IgG Fc, soluble globulomer injected; lot #1773659, experiment 2
Procedure: as §4

[15] = molecular target: T2, Aβ(20-42) globulomer; assay: SPR (BIAcore); antibody captured on goat anti-human IgG Fc, soluble globulomer injected; average
Procedure: as §4

[16] = molecular target: T2, Aβ(20-42) globulomer; assay: SPR (BIAcore); antibody captured on goat anti-human IgG Fc, soluble globulomer injected; experiment 1
Procedure: as §4

[17] = molecular target: T2, Aβ(20-42) globulomer; assay: SPR (BIAcore); antibody captured on goat anti-human IgG Fc, soluble globulomer injected; experiment 2
Procedure: as §4

| Binder | Ratio HPF4/aAβ antibody [3] | Ratio HPF4/aAβ antibody [4] | binding result [5] | Ratio HPF4/aAβ antibody [7] | Kd [15] [nM] | koff [15] [s⁻¹] | kon [15] [M⁻¹ s⁻¹] | Kd [16] [nM] | koff [16] [s⁻¹] | kon [16] [M⁻¹ s⁻¹] | Kd [17] [nM] | koff [17] [s⁻¹] | kon [17] [M⁻¹ s⁻¹] | further results |
| --- | --- | --- | --- | --- | --- | --- | --- | --- | --- | --- | --- | --- | --- | --- |
| anti-Aβ monoclonal antibody clone m4D10 (antibody, V domains shown, Murine monoclonal antibody; also called mAb m4D10; murine 4D10) VH: QVQLKQSGPSLIQPSQSLSITCTVSGFSLTSYGVHWVRQSPGKGLEWLGVIWRGGRIDYNAAFMSRLSITKDNSKSQVFFKMNSLQADDTAIYYCARNSDVWGTGTTVTVSS VL: not shown | – | – | – | – | – | – | – | – | – | – | – | – | – | Ratio HPF4/aAβ antibody [1]: 21; Ratio HPF4/aAβ antibody [2]: 27 |
| humanized monoclonal anti-Aβ antibody 4D10hum#1 (antibody, human IgG1, kappa, V domains shown, also called mAb 4D10hum#1; mAb 4D10 hum#1) VH: EVQLVESGGGLVQPGGSLRLSCAVSGFTLSSYGVHWVRQAPGKGLEWLGVIWRGGRIDYNAAFMSRLTISKDNSKSTVYLQMNSLRAEDTAVYYCARNSDVWGQGTTVTVSS VL: DVVMTQTPLSLPVTPGQPASISCKSSQSLLDIDGKTYLNWLLQKPGQSPQRLIYLVSKLDSGVPDRFSGSGSGTDFTLKISRVEAEDVGVYYCWQGTHFPYTFGQGTKLEIKR | 64 | 30 | no binding (tested: plasma dilution 1:3.16) | 23 | – | – | – | – | – | – | – | – | – | Ratio HPF4/aAβ antibody [6]: 158 |
| humanized monoclonal anti-Aβ antibody 4D10hum#2 (antibody, human IgG1, kappa, V domains shown, also called mAb 4D10hum#2; mAb 4D10 hum#2) VH: EVQLQESGPGLVKPSETLSLTCTVSGFSLSSYGVHWVRQPPGKGLEWLGVIWRGGRIDYNAAFMSRLTISKDTSKSQVSLKLSSVTAADTAVYYCARNSDVWGQGTTVTVSS VL: DVVMTQTPLSLPVTPGQPASISCKSSQSLLDIDGKTYLNWLLQKPGQSPQRLIYLVSKLDSGVPDRFSGSGSGTDFTLKISRVEAEDVGVYYCWQGTHFPYTFGQGTKLEIKR | 36 | 17 | no binding (tested: plasma dilution 1:3.16) | 75 | – | – | – | – | – | – | – | – | – | Ratio HPF4/aAβ antibody [8]: > 158; Kd [9]: 0.532 nM; koff [9]: 0.000301 s⁻¹; kon [9]: 570000 M⁻¹ s⁻¹; Kd [10]: 0.482 nM; koff [10]: 0.000283 s⁻¹; kon [10]: 597000 M⁻¹ s⁻¹; Kd [11]: 0.454 nM; koff [11]: 0.00027 s⁻¹; kon [11]: 593000 M⁻¹ s⁻¹; Kd [12]: 0.609 nM; koff [12]: 0.000332 s⁻¹; kon [12]: 546000 M⁻¹ s⁻¹; Kd [13]: 0.529 nM; koff [13]: 0.000268 s⁻¹; kon [13]: 507000 M⁻¹ s⁻¹; Kd [14]: 0.435 nM; koff [14]: 0.000298 s⁻¹; kon [14]: 686000 M⁻¹ s⁻¹ |
| 4D10#3 (chimeric heavy chain; light chain as 4D10hum#1 and #2) (antibody, human IgG1, kappa, V domains shown, Heavy chain is a chimera of m4D10 VH and the human Ig gamma-1 constant region; light chain is the humanized one; also called antibody #3) VH: QVQLKQSGPSLIQPSQSLSITCTVSGFSLTSYGVHWVRQSPGKGLEWLGVIWRGGRIDYNAAFMSRLSITKDNSKSQVFFKMNSLQADDTAIYYCARNSDVWGTGTTVTVSS VL: DVVMTQTPLSLPVTPGQPASISCKSSQSLLDIDGKTYLNWLLQKPGQSPQRLIYLVSKLDSGVPDRFSGSGSGTDFTLKISRVEAEDVGVYYCWQGTHFPYTFGQGTKLEIKR | – | – | – | – | 0.597 | 0.000333 | 563000 | 0.525 | 0.000317 | 603000 | 0.669 | 0.000349 | 522000 | – |
| 4D10#4 (heavy chain as 4D10hum#1; chimeric light chain) (antibody, human IgG1, kappa, V domains shown, Light chain is a chimera of m4D10 VL and the human Ig kappa constant region; also called antibody #4) VH: EVQLVESGGGLVQPGGSLRLSCAVSGFTLSSYGVHWVRQAPGKGLEWLGVIWRGGRIDYNAAFMSRLTISKDNSKSTVYLQMNSLRAEDTAVYYCARNSDVWGQGTTVTVSS VL: not shown | – | – | – | – | 0.646 | 0.000313 | 484000 | 0.635 | 0.000294 | 462000 | 0.657 | 0.000332 | 506000 | – |
| 4D10#5 (heavy chain as 4D10hum#2; chimeric light chain) (antibody, human IgG1, kappa, V domains shown, Light chain is a chimera of m4D10 VL and the human Ig kappa constant region; also called antibody #5) VH: EVQLQESGPGLVKPSETLSLTCTVSGFSLSSYGVHWVRQPPGKGLEWLGVIWRGGRIDYNAAFMSRLTISKDTSKSQVSLKLSSVTAADTAVYYCARNSDVWGQGTTVTVSS VL: not shown | – | – | – | – | 0.575 | 0.000277 | 483000 | 0.53 | 0.000262 | 494000 | 0.619 | 0.000292 | 472000 | – |
